Here are results for 1 molecule from patent publication US20110263827A1 (AbbVie / Abbott, published 2011).

Several values for one entry are separate records, joined by “and”; a condition that tells them apart may be missing. Identical values can stand only once.

In the assay the target is T1, VEGF (UniProt P15692-4 27-191, limits assumed, biotinylated).
T1 construct: ELISA antigen
The assay can be described thus: direct bind ELISA, ref Ab.

Description: Enzyme Linked Immunosorbent Assays to screen for antibodies that bind a desired target antigen are performed as follows. […] Plates are washed once with PBS containing 0.05% Tween-20. […] Plates are washed once after blocking with PBS containing 0.05% Tween-20.
Fifty microliters per well of, e.g., mouse sera, hybridoma supernatants, or antibody or DVD-Ig preparations diluted in PBS containing 0.1% Bovine Serum Albumin (BSA) (Sigma, St. Louis, Mo.) is added to the ELISA plate prepared as described above and incubated for 1 hour at room temperature. Wells are washed three times with PBS containing 0.05% Tween-20. […] Plates are washed 3 times with PBS containing 0.05% Tween-20. […] Plates are washed 3 times with PBS containing 0.05% Tween-20. Fifty microliters of TMB solution (Sigma #T0440, St. Louis, Mo.) is added to each well and incubated for 10 minutes at room temperature. The reaction is stopped by addition of 1N sulphuric acid. Plates are read spectrophotmetrically at a wavelength of 450 nm.

B1: AB071 (antibody, V domains shown)
VH: EVQLVESGGGLVQPGGSLRLSCAASGFTINASWIHWVRQAPGKGLEWVGAIYPYSGYTNYADSVKGRFTISADTSKNTAYLQMNSLRAEDTAVYYCARWGHSTSPWAMDYWGQGTLVTVSS
VL: DIQMTQSPSSLSASVGDRVTITCRASQVIRRSLAWYQQKPGKAPKLLIYAASNLASGVPSRFSGSGSGTDFTLTISSLQPEDFATYYCQQSNTSPLTFGQGTKVEIKR
notes: parent antibody
One may read the EC50 as the concentration that produces a half-maximal response. A low value points to higher potency in that assay. With B1, the EC50 was 1.68 nM and 1.57 nM.
